Patent publication CN117736314A

Legend:
[1] = molecular target: SARS-CoV-2 Omicron BA.5 S蛋白 (病毒颗粒上) (SARS-CoV-2); test: cell-based or functional assay
[2] = molecular target: SARS-CoV-2 Omicron(BA.2) S蛋白 (病毒颗粒上) (SARS-CoV-2); test: cell-based or functional assay

Substance: LY-CoV1404(bebtelovimab) (antibody)
- IC 50 (ng/mL), live virus neutralisation, FFA on Vero cells [1]: 7.99 ng/mL
- IC 50 (ng/mL), live virus neutralisation, FFA on Vero cells [2]: 11.2 ng/mL
